Assay results as given in patent publication US20250145690A1 (US Dept. of Health and Human Services, published 2025).

Assays:
Assay in all cases: bead flow cytometry, AUC minus CD4
[1] = target: T1, HCoV-229E spike protein (Sino Biological 40605-V08B) (HCoV-229E, UniProt P15423 16-1115)
T1 sequence: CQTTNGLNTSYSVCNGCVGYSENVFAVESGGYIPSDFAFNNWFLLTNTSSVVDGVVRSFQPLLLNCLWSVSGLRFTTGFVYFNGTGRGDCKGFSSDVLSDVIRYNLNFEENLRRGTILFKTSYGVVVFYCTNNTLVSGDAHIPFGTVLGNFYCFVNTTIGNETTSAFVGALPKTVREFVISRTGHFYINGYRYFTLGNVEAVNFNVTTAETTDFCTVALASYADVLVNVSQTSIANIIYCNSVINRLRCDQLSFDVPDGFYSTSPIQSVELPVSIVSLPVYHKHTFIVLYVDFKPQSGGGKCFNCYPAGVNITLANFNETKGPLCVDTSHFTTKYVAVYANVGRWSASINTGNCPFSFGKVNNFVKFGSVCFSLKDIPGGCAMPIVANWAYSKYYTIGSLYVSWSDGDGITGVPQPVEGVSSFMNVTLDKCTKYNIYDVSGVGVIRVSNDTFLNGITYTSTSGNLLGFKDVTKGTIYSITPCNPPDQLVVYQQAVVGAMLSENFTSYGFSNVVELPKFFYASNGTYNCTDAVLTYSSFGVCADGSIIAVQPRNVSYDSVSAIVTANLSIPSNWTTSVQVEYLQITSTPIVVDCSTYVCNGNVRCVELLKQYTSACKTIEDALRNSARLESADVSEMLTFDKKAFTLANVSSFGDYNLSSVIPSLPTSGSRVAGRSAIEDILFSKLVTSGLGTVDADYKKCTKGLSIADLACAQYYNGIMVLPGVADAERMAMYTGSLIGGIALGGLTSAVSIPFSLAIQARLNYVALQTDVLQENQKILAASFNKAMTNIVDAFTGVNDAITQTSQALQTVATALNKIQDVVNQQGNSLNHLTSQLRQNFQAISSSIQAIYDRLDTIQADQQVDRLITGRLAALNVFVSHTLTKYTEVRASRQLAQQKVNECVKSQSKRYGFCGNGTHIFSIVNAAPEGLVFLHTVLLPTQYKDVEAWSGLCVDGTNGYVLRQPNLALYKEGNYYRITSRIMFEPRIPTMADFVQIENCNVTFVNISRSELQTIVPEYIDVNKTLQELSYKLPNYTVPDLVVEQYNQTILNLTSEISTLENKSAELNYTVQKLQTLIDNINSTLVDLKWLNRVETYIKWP

[2] = target: T2, HCoV-NL63 spike protein (Sino Biological 40604-V08B) (HCoV-NL63, UniProt Q6Q1S2 19-1296)
T2 sequence: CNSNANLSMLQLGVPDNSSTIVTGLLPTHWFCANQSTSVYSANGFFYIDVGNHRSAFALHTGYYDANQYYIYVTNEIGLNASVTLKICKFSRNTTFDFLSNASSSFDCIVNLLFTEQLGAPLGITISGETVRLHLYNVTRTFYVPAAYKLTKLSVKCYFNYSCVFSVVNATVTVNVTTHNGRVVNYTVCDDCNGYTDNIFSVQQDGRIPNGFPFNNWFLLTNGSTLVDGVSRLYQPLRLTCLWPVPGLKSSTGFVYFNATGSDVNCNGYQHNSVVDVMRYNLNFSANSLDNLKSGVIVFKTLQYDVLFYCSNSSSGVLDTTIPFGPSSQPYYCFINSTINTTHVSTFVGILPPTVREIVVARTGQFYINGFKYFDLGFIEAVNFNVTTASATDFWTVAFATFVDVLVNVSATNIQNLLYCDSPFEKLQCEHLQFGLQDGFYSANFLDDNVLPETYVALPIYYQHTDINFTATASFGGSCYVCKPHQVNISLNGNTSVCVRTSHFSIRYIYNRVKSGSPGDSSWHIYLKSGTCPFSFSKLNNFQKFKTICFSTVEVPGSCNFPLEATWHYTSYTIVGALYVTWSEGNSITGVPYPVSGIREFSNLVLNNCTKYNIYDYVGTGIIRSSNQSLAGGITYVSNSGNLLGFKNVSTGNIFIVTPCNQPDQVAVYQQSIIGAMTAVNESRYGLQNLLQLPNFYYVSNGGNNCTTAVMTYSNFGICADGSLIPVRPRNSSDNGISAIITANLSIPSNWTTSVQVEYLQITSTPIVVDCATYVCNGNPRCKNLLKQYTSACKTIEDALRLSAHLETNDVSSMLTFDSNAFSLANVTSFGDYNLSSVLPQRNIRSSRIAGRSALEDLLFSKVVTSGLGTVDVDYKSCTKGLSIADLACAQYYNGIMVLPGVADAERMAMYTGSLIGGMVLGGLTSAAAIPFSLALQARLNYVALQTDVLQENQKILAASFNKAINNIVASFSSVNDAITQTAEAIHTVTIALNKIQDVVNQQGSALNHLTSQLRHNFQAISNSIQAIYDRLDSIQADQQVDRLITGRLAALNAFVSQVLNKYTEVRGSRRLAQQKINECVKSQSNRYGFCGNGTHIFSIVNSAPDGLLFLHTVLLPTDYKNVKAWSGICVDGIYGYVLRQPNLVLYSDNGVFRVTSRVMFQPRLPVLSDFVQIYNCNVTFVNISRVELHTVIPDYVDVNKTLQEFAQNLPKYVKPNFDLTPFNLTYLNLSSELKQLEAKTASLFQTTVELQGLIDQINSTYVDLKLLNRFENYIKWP

[3] = target: SARS-CoV-2 spike receptor binding domain (RBD), recombinant (SARS-CoV-2, UniProt P0DTC2 319-541)
[4] = target: SARS-CoV-2 spike N-terminal domain (NTD), recombinant (SARS-CoV-2, UniProt P0DTC2 14-305)

Measured: binding result

B1: COV44-56 (antibody, V domains shown)
VH: QVLLVQSGAEVKKPGASVMVSCKASGYILNNYYMHWVRQAPGHGLEWMGIINPSGDGTRYAQKFQGRVTMTRDSSTTSIHMELRRVTSEDTAVYYCARGGSQSAFDMWGQGTVVLVSS
VL: DIVMTQSPRSLPVTPGESASISCRSSQSLLQKNGYNYLDWYVQKPGQSPQLLIYLGSYRASGVPDRISGSGSGTDFTLKINRVEAEDVGVYYCLQAQQAPPLYTFGQGTKLQIE
no binding (tested: 200 µg/mL): all assays above

B2: COV93-03 (antibody, V domains shown)
VH: QLQLVQSGAEVKKPGASVKLSCKASGNTFTSHYIHWVRQAPGQGPEWMGIINPSGSGTRYAQKFQGRVTMTRDTSTSTVYMELVSLRFEDTAVYYCAGDYYLDYWGQGTLVTVSS
VL: EFVLTQSPGTLSLSPGERATLSCRASQSVTSNYLAWYQQKPGQAPRLLIFGASSRATGIPDRFSGSGSGTDFTLTISRLEPEDFAVYYCQQYGSSPPMYTFGPGTKVEIK
no binding (tested: 200 µg/mL): all assays above

B3: COV49-51 (antibody, V domains shown)
VH: QVQLVQSGAEAKKPGASVKVSCKASGYSFTSYHMHWVRQAPGQGLEWMGIINPNGGTTTYAPKFQGRVTMTSDTSTSTVYMELTSLRSEDTAVYYCSTVVGALWGQGTLVIVSS
VL: IVLTQSPGTLSLSPGERATLSCRASQSVRSNNYLAWYQQKPGQAPRLLIYGASTRATGIPDRFSGSGSGTDFTLTISRLEPEDFAVYYCQQYGSSPLTFGGGTRVEIK
no binding (tested: 200 µg/mL): all assays above

B4: COV44-54 (antibody, V domains shown)
VH: QVQLVQSGAEVKKPGASVRVSCKTSGYTFTNYYMTWVRQAPGQGLQWVGLISPSAGYTAYAQMFQGRVTMTSDTSTSTVYMQLSSLRSEDTAIYYCTRVAVAGPNDYWGQGTLVTVSS
VL: EIVLTQSPGTLSLSPGERATLSCRASQSISGSYLAWYQQKPGQAPRLVIYAASSRATGIPDRFSGSGSGTDFILTISRLEAEDFAVYFCQHYRSSPPLWTFGQGTKVEIR
no binding (tested: 200 µg/mL): all assays above

B5: COV49-03 (antibody, V domains shown)
VH: DVQLLESGGGLVQPGGSRRLSCAASGFTFSNYAMSWVRQAPGKGLEWVSAISGGGATTYYADSVQGRFTMSRDNSNNTLYLQMSSLRAEDTAVYYCTKGAFYDILSSIIVEGDYWGQGTLVTVSS
VL: DVVLTQSPLSLPITLGQPASISCRSSQSLVFSDGNTYLNWFQQRPGQSPRRLIYKVSNRDSGVPDRFSGSGSGTDFTLKISRVEAEDVGVYYCMQGTHWLSITFGQGTRLEIK
no binding (tested: 200 µg/mL): all assays above

B6: COV49-04 (antibody, V domains shown)
VH: EVQLLESGGGLVQPGGSLRLSCATSGFTFSSYAMTWVRQAPGKGLEWVSAISGGGATTYSTDSVKGRFTTSRDNSKNTLYLQMNNLRAEDTALYYCAKGAFYNILSSIIVEGDYWGQGTLVTVSS
VL: DVVMTQSPLSLSVTLGQPASISCRSSQSLVFSDGDTYLNWFQQRPGQSPRRLIYRVSNRDSGVPDRFSGSGSGTDFTLKISRVEAEDVGVYYCMQGTHWLSITFGQGTRLDIK
no binding (tested: 200 µg/mL): all assays above

B7: COV49-05 (antibody, V domains shown)
VH: EVQLLESGGGLAQPGGSLRLSCVASGFSFNDYAMTWVRQAPGKGLEWVSAVSSGGQTTYSTDSVKGRFTISRDNSKNMLYLQMNSLRAEDTAVYYCVKGAFYNILSSIIVEGDYWGQGTLVTVSS
VL: GVVLTQSPLSLPVTLGQPASISCRSSQSLVFSDGNTYLNWFQQRPGQSPRRLIYQVSNRDPGVPDRFSGSGSGTDFTLKISRVEAEDVGVYYCMQGTHWLSITFGQGTRLEIK
no binding (tested: 200 µg/mL): all assays above

B8: COV49-23 (antibody, V domains shown)
VH: EVQLLESGGGLAQPGGSLRISCVASGFSFNDYAMAWVRRAPGKGLEWVSAVSGGGQTTYSTDSVKGRFTTSRDNSKNTLYLQMNGLRAEDTAVYYCVKGAFYNILSSIIVEGDYWGQGALVTVSS
VL: GVVLTQSPLSLPVTLGQPASISCRSSQSLVFSDGNTYLNWFQQRPGQSPRRLIYQVSNRDPGVPDRFSGSGSGTDFTLKISRVEAEDVGVYYCMQGTHWLSITFGQGTRLEIK
no binding (tested: 200 µg/mL): all assays above
